Assay results from patent US20250277050A1 (MEDICAL COLLEGE OF WISCONSIN, published 2025).
Substitutions are numbered along the chain they refer to. Each block holds one binder with its values, some of them ahead of it.

Tests used:
[1] = target: T1, human CD30 expressed on the cell surface (human, UniProt P28908 19-595); experiment: flow cytometry, purified antibody on cells with CD30 surface expression
T1 construct: whole, on cells; also called huCD30; cell-surface expressed CD30
T1 sequence (looked up): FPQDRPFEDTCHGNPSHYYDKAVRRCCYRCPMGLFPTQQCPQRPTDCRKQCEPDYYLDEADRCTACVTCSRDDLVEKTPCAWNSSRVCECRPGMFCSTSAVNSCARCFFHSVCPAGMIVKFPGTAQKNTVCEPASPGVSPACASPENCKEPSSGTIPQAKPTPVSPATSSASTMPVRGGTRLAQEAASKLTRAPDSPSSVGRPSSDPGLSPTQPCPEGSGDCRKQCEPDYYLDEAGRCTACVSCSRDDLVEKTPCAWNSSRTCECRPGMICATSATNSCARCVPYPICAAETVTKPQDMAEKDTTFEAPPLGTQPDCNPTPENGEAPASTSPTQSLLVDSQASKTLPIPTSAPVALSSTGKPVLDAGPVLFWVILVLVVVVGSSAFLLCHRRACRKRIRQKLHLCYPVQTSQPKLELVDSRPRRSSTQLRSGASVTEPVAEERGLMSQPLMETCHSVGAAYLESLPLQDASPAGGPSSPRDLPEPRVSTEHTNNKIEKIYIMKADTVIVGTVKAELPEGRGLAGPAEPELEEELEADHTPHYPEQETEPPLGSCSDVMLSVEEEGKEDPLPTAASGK

[2] = target: T1, human CD30 expressed on the cell surface; experiment: flow cytometry on CD30+ and CD30- cell lines
Description: Flow cytometry analysis was preformed using purified antibody on CD30+ cell lines (SU-DHL-1, RPMI6666, […]) and a CD30− cell line (OCIAML2). A commercially available α-huCD30 antibody (clone BY88) and an isotype control were also tested.
We have employed hybridoma technology to generate novel murine anti-human CD30 mAbs. Mice were immunized and boosted with purified human GST-tagged CD30. Mouse spleen cells were then harvested and fused with myeloma cells to generate antibody secreting hybridoma. Hybridoma supernatants were screened for specificity to purified CD30 protein by ELISA, and GST specific clones were eliminated. […] Specific binding of our mAbs to cell-surface expressed CD30 was assessed by flow cytometry (FIG. 1) using 293T cells (CD30−), lentiviral transduced 293T cells expressing huCD30, and K562 cells which are naturally CD30+. The 293T (CD30−), 293T LV huCD30 (transduced with human CD30), SU-DHL-1 (lymphoma), RPMI.6666 (lymphoma) or K562 (CML) cell lines were incubated with each antibody in the form of unpurified hybridoma supernatant, and then incubated with an Alexa Fluor 647-labeled anti-mouse IgG antibody. Cell-associated fluorescence was determined by FACS.

B1: 15B8 (antibody, V domains shown)
VH: QVQLEQSGTELVKPGASVKLSCKASGYTFTSYWMHWVKQRPGQGLEWIGNINPSNGGTNYNEKFKSKATLTVDKSSSTAYMQLSSLTSEDSAIYYCARRNNYYASSPFAYWGQGTLVSVSA
VL: DIVMTQTPASLSASVGETVTITCRASGNIHNYLAWYQQKQGKSPQLLVYNAKTLADGVPSRFSGSGSGTQYSLKINSLQPEDFGSYYCQHFWSTPFTFGSGTKLEIK
notes: Murine anti-human CD30 monoclonal antibody from a hybridoma, detected with anti-mouse IgG; also called monoclonal antibody 15B8
- binding result [1]: binds

B2: 12B1 (antibody, V domains shown)
VH: EVKLEESGTELVKPGASVKLSCKASGYTFTSYWMHWVKQRPGQGLEWIGNINPTNGGTNYNEKFKSKATLTVDKSSRTAYMQLSSLTSGDSAVYYCARRDFITTSGFAYWGQGTLVTVSA
VL: B1 VL with P8T, A13T, I29L, N31S, A34T, N76D, S93T
notes: Murine anti-human CD30 monoclonal antibody from a hybridoma, detected with anti-mouse IgG; also called monoclonal antibody 12B1
- binding result [2]: binds

B3: 8D10 (antibody, V domains shown)
VH: QVQLQESGTELVKPGASVKLSCKASGYTFTSYWMHWMKQRPGQGLEWIGNINPSNGGTNYNEKFKNKATLTVDKSSSTAYMQLSSLTSEDSAVYYCARRDYYYGSSYGFDVWGTGTTVTVSS
VL: DIVMTQSPASQSASLGESVTITCLASQTIGTWLAWYQQKPGKSPQFLIYAATSLADGVPSRFSGSGSGTKFSFKISSLQAEDFVSYYCQQLYSTPFTFGGGTKLEIK
notes: Murine anti-human CD30 monoclonal antibody from a hybridoma, detected with anti-mouse IgG; also called monoclonal antibody 8D10; anti-CD30 mAb 8D10
- binding result [2]: binds

Continued, values first:

- binding result [2]: binds
B4: 13H1 (antibody, V domains shown)
VH: QVQLQQSGTELVKPGASVKLSCKASGHTFTSYWMHWVKQRPGQGLEWIGNINPSNGGTNYNEKFKSKATLTVDKSSSTAYMQLSSLTSEDSAVYYCARRGYYGSSSYWSFDVWGTGTTVTVSS
VL: DIVMTQTPKSMSMSVGERVTLSCKASENVGTYVSWYQQKPEQSPKVLIYGASNRFTGVPDRFTGSGSATDFTLTISSVQTEDLADYHCGQSYSYPLTFGAGTKLELK
notes: Murine anti-human CD30 monoclonal antibody from a hybridoma, detected with anti-mouse IgG; also called monoclonal antibody 13H1

- binding result [2]: binds
B5: 10C2 (antibody, V domains shown)
VH: QVQLEQSGPVLVKPGASVKMSCKASGYTFTDYYMNWVKQSHGKSLEWIGVINPYNGGTSYNQKFKGKATLTVDKSSSTACMELNCLTSEDSAVYYCTLGAYWGQGTSVTVSS
VL: not shown
notes: Murine anti-human CD30 monoclonal antibody from a hybridoma, detected with anti-mouse IgG; also called monoclonal antibody 10C2; anti-CD30 mAb 10C2
